From PMC6230950

Tests used:
[1] = target: commercial purified human IgG1 (human); test: SPR; Biacore X100, HBS-EP+; TB-PIGS captured on protein A coupled to a CM5 chip; FcγR as analyte, 40 μL/min; affinity of one FcγR for a single arm
[2] = target: commercial purified human IgG1 (human); test: SPR; Biacore X100; protein A on a CM5 chip, IgG or TB-PIGS captured; human CD32a as analyte, 4000 nM to 125 nM in 2-fold dilutions; HBS-EP+; 40 uL/min, contact 90 s; steady-state affinity analysis
[3] = target: commercial purified murine IgG2a (mouse); test: SPR; Biacore X100; protein A amine-coupled on a CM5 chip, IgG or TB-PIGS captured on it; CD64 (human or mouse) as analyte, 240 nM down to 1.875 nM in 1:2 dilutions; HBS-EP+; 40 uL/min, contact 135 s, dissociation 600 s; 1:1 model, but for human TB-PIGS from wild-type plants the 'Heterogeneous antibody with aglycosylation' model (two sets of values)

Molecule: human CD16a (FcγRIIIa) (from UniProt P08637 17-208) (receptor)
- Kd [1]: 673 nM

Molecule: human CD32a (FcγRIIa) (from UniProt P12318 34-217) (receptor)
- Kd [2]: 880 nM

Molecule: human CD64 (FcγRI) (from UniProt P12314 16-292) (receptor)
- Kd [1]: 0.27 nM

B1: mouse CD64 (FcγRI) (receptor)
chain: EVVNATKAVITLQPPWVSIFQKENVTLWCEGPHLPGDSSTQWFINGTAVQISTPSYSIPEASFQDSGEYRCQIGSSMPSDPVQLQIHNDWLLLQASRRVLTEGEPLALRCHGWKNKLVYNVVFYRNGKSFQFSSDSEVAILKTNLSHSGIYHCSGTGRHRYTSAGVSITVKELFTTPVLRASVSSPFPEGSLVTLNCETNLLLQRPGLQLHFSFYVGSKILEYRNTSSEYHIARAEREDAGFYWCEVATEDSSVLKRSPELELQVLGPQSSAP
- Kd [3]: 4.8 nM
- koff [3]: 0.0105 s⁻¹
- kon [3]: 2.18e+06 M⁻¹ s⁻¹
